Test results as given in US20070218075.
Where a chain is given by its changes, count along the chain named.

How the values were obtained:
[1] = target: T1, 4Q4K FnbA mutant (recombinant Gln103Ala, Gln105Ala, Gln783Ala, Gln830Ala, Lys157Ala, Lys503Ala, Lys620Ala, and Lys762Ala mutant, residues Ala1-Pro839)
T1 chain: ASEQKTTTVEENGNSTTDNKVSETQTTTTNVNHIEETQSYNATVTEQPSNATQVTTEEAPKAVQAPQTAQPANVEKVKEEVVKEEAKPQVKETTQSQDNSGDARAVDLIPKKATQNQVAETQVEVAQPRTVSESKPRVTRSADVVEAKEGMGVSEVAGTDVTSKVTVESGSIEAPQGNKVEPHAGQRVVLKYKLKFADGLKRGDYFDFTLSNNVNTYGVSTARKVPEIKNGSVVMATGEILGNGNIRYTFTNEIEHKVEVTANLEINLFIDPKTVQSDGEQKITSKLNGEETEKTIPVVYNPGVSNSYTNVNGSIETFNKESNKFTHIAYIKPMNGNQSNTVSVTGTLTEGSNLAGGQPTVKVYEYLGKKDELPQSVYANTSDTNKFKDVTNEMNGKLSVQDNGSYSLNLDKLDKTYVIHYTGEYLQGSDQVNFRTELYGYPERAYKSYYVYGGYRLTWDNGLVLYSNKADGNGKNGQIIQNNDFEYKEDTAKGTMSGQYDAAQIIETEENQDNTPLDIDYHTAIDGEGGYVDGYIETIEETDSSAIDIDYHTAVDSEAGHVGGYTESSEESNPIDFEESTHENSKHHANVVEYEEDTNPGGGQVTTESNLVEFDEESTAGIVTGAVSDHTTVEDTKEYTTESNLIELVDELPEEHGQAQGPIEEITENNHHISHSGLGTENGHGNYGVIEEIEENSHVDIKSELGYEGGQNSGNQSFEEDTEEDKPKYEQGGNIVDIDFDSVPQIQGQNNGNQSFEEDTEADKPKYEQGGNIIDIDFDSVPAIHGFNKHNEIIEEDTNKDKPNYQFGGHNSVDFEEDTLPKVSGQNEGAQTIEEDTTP

[2] = target: T2, 1Q FnbA mutant (recombinant Gln103Ala FnbA mutant, residues Ala1-Pro839)
T2 chain: T1 chain with A105Q, A157K, A503K, A620K, A762K, A783Q, A830Q

[3] = target: T3, recombinant fibronectin-binding protein A (rFnbA) comprising residues Ala1 through Pro839 from S. aureus strain ATCC49525, wild type
T3 chain: T1 chain with A103Q, A105Q, A157K, A503K, A620K, A762K, A783Q, A830Q

B1: Factor XIIIa (Factor XIII, Haematologic Technologies, activated by thrombin) (protein)
chain 1: GVNLQEFLNVTSVHLFKERWDTNKVDHHTDKYENNKLIVRRGQSFYVQIDFSRPYDPRRDLFRVEYVIGRYPQENKGTYIPVPIVSELQSGKWGAKIVMREDRSVRLSIQSSPKCIVGKFRMYVAVWTPYGVLRTSRNPETDTYILFNPWCEDDAVYLDNEKEREEYVLNDIGVIFYGEVNDIKTRSWSYGQFEDGILDTCLYVMDRAQMDLSGRGNPIKVSRVGSAMVNAKDDEGVLVGSWDNIYAYGVPPSAWTGSVDILLEYRSSENPVRYGQCWVFAGVFNTFLRCLGIPARIVTNYFSAHDNDANLQMDIFLEEDGNVNSKLTKDSVWNYHCWNEAWMTRPDLPVGFGGWQAVDSTPQENSDGMYRCGPASVQAIKHGHVCFQFDAPFVFAEVNSDLIYITAKKDGTHVVENVDATHIGKLIVTKQIGGDGMMDITDTYKFQEGQEEERLALETALMYGAKKPLNTEGVMKSRSNVDMDFEVENAVLGKDFKLSITFRNNSHNRYTITAYLSANITFYTGVPKAEFKKETFDVTLEPLSFKKEAVLIQAGEYMGQLLEQASLHFFVTARINETRDVLAKQKSTVLTIPEIIIKVRGTQVVGSDMTVTVEFTNPLKETLRNVWVHLDGPGVTRPMKKMFREIRPNSTVQWEEVCRPWVSGHRKLIASMSSDSLRHVYGELDVQIQRRPSM
chain 2: EEKPCGFPHVENGRIAQYYYTFKSFYFPMSIDKKLSFFCLAGYTTESGRQEEQTTCTTEGWSPEPRCFKKCTKPDLSNGYISDVKLLYKIQENMRYGCASGYKTTGGKDEEVVQCLSDGWSSQPTCRKEHETCLAPELYNGNYSTTQKTFKVKDKVQYECATGYYTAGGKKTEEVECLTYGWSLTPKCTKLKCSSLRLIENGYFHPVKQTYEEGDVVQFFCHENYYLSGSDLIQCYNFGWYPESPVCEGRRNRCPPPPLPINSKIQTHSTTYRHGEIVHIECELNFEIHGSAEIRCEDGKWTEPPKCIEGQEKVACEEPPFIENGAANLHSKIYYNGDKVTYACKSGYLLHGSNEITCNRGKWTLPPECVENNENCKHPPVVMNGAVADGILASYATGSSVEYRCNEYYLLRGSKISRCEQGKWSSPPVCLEPCTVNVDYMNRNNIEMKWKYEGKVLHGDLIDFVCKQGYDLSPLTPLSELSVQCNRGEVKYPLCTRKESKGMCTSPPLIKHGVIISSTVDTYENGSSVEYRCFDHHFLEGSREAYCLDGMWTTPPLCLEPCTLSFTEMEKNNLLLKWDFDNRPHILHGEYIEFICRGDTYPAELYITGSILRMQCDRGQLKYPRCIPRQSTLSYQEPLRT
- Factor XIIIa-catalyzed incorporation of dansylcadaverine (fluorescence of the FnbA band on SDS-PAGE) [1]: Further reduction in fluorescence intensity was observed with the 4Q4K rFnbA mutant
- Factor XIIIa-catalyzed incorporation of dansylcadaverine (fluorescence of the FnbA band on SDS-PAGE) [2]: incorporation of dansylcadaverine into the 1Q FnbA mutant was drastically reduced
- Factor XIIIa-catalyzed incorporation of dansylcadaverine (fluorescence of the FnbA band on SDS-PAGE) [3]: the band corresponding to the wild-type FnbA undergoes a continual increase of fluorescence reflecting the enzymatic attachment of increasing molecules of the probe
